Measurements taken from patent CN109776681A.

Target: 人IgG蛋白 (human)
Assay: BLI (Octet RED96), human IgG loaded on the sensor, nanobody at 50 μg/mL in solution

Kd: 3.69 nM | koff: 0.00157 s⁻¹ | kon: 426000 M⁻¹ s⁻¹
B1: 抗免疫球蛋白G的Fc段的纳米抗体 (编号为I4的阳性克隆) (VHH)
VHH: QVQLVESGGGLVQAGGSLRLSCAASGGTFYSYAMGWFRQAPGKKREFVAAIRWTSGITYYADSVKDRFTISRDNAKNTVYLQMTGLKPEDTAVYYCALGPDNSDSYDYWGQGTQVTVSS
